The experiment concerns the target human C1q (human) (UniProt P02745). The experiment in a line: C1q (50 nM) with 100 nM antibody on TNFa-activated HUVECs; bound C1q detected with biotinylated polyclonal anti-C1q and imaging; normalised to isotype IgG.
UniProt P02745, sequence (P02745 23-245, chain 1 of 3): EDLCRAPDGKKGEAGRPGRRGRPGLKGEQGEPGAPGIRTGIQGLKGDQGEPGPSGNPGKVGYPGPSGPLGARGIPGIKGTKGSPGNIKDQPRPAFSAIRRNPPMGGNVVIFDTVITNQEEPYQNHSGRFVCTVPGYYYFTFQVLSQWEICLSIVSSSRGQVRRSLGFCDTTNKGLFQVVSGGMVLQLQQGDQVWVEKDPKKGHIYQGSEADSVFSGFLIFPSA
UniProt P02745, sequence (chain, as listed by the source, chain 2 of 3): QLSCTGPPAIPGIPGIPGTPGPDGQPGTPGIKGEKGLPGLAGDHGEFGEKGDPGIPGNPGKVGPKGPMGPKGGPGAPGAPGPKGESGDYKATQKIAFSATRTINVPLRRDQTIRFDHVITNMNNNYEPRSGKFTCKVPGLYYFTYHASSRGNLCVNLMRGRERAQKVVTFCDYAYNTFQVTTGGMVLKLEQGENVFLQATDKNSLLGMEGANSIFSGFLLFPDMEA
UniProt P02745, sequence (chain, as listed by the source, chain 3 of 3): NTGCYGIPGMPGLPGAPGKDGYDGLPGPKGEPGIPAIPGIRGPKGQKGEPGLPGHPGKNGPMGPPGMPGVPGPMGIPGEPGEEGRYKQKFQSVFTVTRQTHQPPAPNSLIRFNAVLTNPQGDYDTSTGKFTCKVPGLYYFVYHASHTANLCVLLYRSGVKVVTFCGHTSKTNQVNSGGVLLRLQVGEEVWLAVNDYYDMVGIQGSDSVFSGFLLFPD

Take “control antibody comprising murine heavy and light chain variable regions of the anti-C1q antibody M1 (Annexon Biosciences) with hIgG1 and kappa constant regions”: the % inhibition of binding of C1q to activated endothelial cells came out at 94%.

Source of the values: patent EP4670793A1.
